Experiment: label from the status in PepcDB records

**Q.** For “MPQPDPQGFRRSLFLYRRAGMAEIGDFAVKFMIGIRSKRMITLPSLNNLPSKWDEIRHCLETRVFECGVMPYPNLTECEAGQFERDFWDNIGCAPEEYVRIRRAIRLLELRYPDSLNELVCAAIATPLGEMLAVFGVKGLCLLEFVGQKYLEQEIAAVQKALRGRFVFREDGRMQFLRQELDLYFKGHLKTFATPLEQIGTEFQKQAWDALLAIPYGETRSYKEQAQRLGNPKAVRAVAAANGQNKVSVMIPCHRVIGSDGKLTGYAGGLNRKQFLLALERGEVQTALF”, which protein production is on record?
**A.** failed

**Q.** For “MQTSIDPVFAGWDGSVAQARQLQQQLAQRVALRDEVSAAPALLAGFDVGFEDDGQTTRAAAVLLDAQTLLPLETHVARVPTSMPYVPGLLSFRELPALLRALALLARTPDLVFIDGQGIAHPRRFGIAAHFGVVTGLPSIGVAKQRLAGTFIEPGGERGDHSPILLAGAQIGWALRSKPRCNPLIVSPGHRVSMQGALDWTLRTLRAYRLPEPTRLADRLASRRGEIELQTQPTLLLEHHHHHH”, which protein production is on record?
**A.** failed

**Q.** With “MQLTSENYYSQEANKEYMSVSGYKDFAGTYGKMPCEFYGMEKLNGRWEDEKSTALLVGSYVDSYFEGSLDQFKKDNPEIFTQKGELKANFKQAEEIIARIERDEYFMKYMSGQKQVIMTGELFGAKWKIKMDSYIPGVAIVDLKVMASITDLKWVKDIGYLDFVRYWGYDIQGAVYQEIVRQNTGEKLPFFIAGATKQTEPDIRIIHVTDNYLQEALHMVEMNMPRILRVKNGEVEPDRCELCDCCRHNRVLKKPISIMDLTAGI” as the sequence, how does the protein production read?
**A.** not failed

**Q.** Which protein production does the source give for “MGHILDSRRCALSVTQQQVLDSLARIKSPRGVALPNANVLSAISASDGKVFFSINVDAAEARAWEAVRAEAEAAVRAIPGATTVMVALTAERKPGSAPPPPPTPSRGTPGVQPVHAHKPPQGGGSPMARQSEIPGVAAVIAVASGKGGVGKSTTALNLALGLRDLGLKVGLLDADIYGPSVPRLTGLRDKPELDGERKMIPLRRFGLAIMSIGFLVEEETAMIWRGPMVMSAVTQMLRDVAWGSLDVLVVDMPPGTGDAQLTLAQNVPLKGAVIVSTPQDLSLIDARRGLAMFRKVNVPVLGIVENMSYFQCPHCGTKSDIFGHGGARHEAEKLGVPFLGEIPLHMAIRATSDAGNPVVDSEPDGPHAAIYRAIAGQVRDQLKGAIAAA” here?
**A.** failed

**Q.** With “ALPELRLEQFIITGASKRGWSAWLTAMADDRVIAIVPSVIDVADTSSMLEGLRKRYGGSWPLALWSYQAAEVLQQLGSPAFARLMALMDPMQYLDEPGARLKIPKYLVSASGDDFFAPDHATDYLQRLPGQTSLRVLPNSDHGGVRAHVVTTLVPMVQRIQASL” as the sequence, how does the protein production read?
**A.** failed

**Q.** For “MTENVVCTGAVNAVKEVWEKRIKKLNEDLKREKEFQHKLVRIWEERVSLTKLREKVTREDGRVILKIEKEEWKTLPSSLLKLNQLQEWQLHRTGLLKIPEFIGRFQNLIVLDLSRNTISEIPPGIGLLTRLQELILSYNKIKTVPKELSNCASLEKLELAVNRDICDLPQELSNLLKLTHLDLSMNDFTTIPLAVLNMPALEWLDMGSNKLEQLPDTIERMQNLHTLWLQRNEITCLPQTISNMKNLGTLVLSNNKLQDIPVCMEEMANLRFVNFRDNPLKLKVSLPPSEGTDEEEERELFGLQFMHTYIQESRRRADHQVNGSTTLPISINTDG”, which protein production is on record?
**A.** not failed

**Q.** For “MLKTTISPIFSSFTGKPKCSSKLFFRAFSKVVLQDTPPSARRNASTNLTTLHKGPPTSAYVHLPFCRKRCHYCDFPILALGMSSSSARPSNVYEEGKEDDPRITNYVNLLVREIKATRTDFDTNPNLETVFFGGGTPSLVPPKLVSLILETLSLNFGLSPDAEISMEMDPGTFDGQKLKDLMKLGVNRVSLGVQAFQDELLKACGRAHGVSQVYEAIEFVKECGVENWSMDLISSLPHQTLEMWEESLRLAIESQPNHVSVYDLQVEQGTKFGNLYTPGQSPLPSETQSAEFYKTASSMLRGAGYEHYEVSSYSRDGFKCKHNLIYWKNKPFYAFGLGSASYVGGLRFSRPRRLKEYTNYVADLENGAANWCGNGDVDLKDVATDILMLSFRTSKGLELKEFGEAFGSEVVKSICKVYEPYVESGHIVCLDDMRSEVMIDEFKTLVANDEVKIEDHVRYLRLKDPDGFLLSNELISLSFGVVAP”, which protein production is on record?
**A.** failed

**Q.** Which protein production does the source give for “MKAIRRFTVRPVLPDALHPLSDLARNLRWSWHAETRELFQSVDPERWAASDGDPVRLLGSVPHARLAELAEDRRFLRRLGAAADDLTDYVTGDRWYQSQAEAPSRAAELPAAIAYFSPEFGVTAALPQYSGGLGILAGDHLKAASDLGVPLIGVGLLYRHGYFRQSLSRDGWQQEHYPVLDPHELPVVPLREDDGALAQVSLALPGGRRLQARIWLAQVGRVPLLMLDSDVEENDHGERGVTDRLYGGGSEHRLLQEMLLGIGGVRAVRTYCRLTGHAEPEVFHTNEGHAGFLGLERIAELCDTGLDFDAGLESVRAGTVFTTHTPVPAGIDRFDRELVARHFGPDAELPRIDVERILGLGMETYPGGEPNLFNMAVMGLRLGQRANGVSLLHGQVSREMFSGLWPGFDPDEVPITSVTNGVHAPTWVAPEVFRLGARQIGAQRTEDAMTVGGSERWDAVAEIPDQDIWDLRRVLREQLVTEVRERLRASWRQRGAGTAELGWIDGVLDPDVLTIGFARRVPSYKRLTLMLRDRDRLMDLLLHPERPVQIVVAGKAHPADDGGKRLVQELVRFADDPRVRHRIVFLPDYGMAMAQKLYPGCDIWLNNPLRPLEACGTSGMKAALNGCLNLSVLDGWWDEWFQPDFGWAIPTADGTATDEDRRDDLEATALYDLLEGRVAPRFYERGQAGLPDRWIEMVRQTLTHLGPKVLAGRMVREYVERLYTPAALAHRALTPEPARELATWKSRVRAAWPRVTVDHVETSVATTTAELGTTLSLRVRVGLGDLDPDDVEVQAVAGRVDGQDRITDATAVPLKPVGGPDLEGRRVYEGPLSLDRTGPFGYTVRILPTHRLLATSAELGLVAVPSEDVGEGAGVLLR” here?
**A.** failed

**Q.** With “TLEWPELLQQCEQLNKPNQINLNPALLWQCQGVGSAPPASNLRESRIKAVLAINPVTNPIFGPDGMKNLAVPTLIVAGSKDIFAPPVPEQIIPFSLIEGVNKYLLLVQNGTHLSFLEDTDNLPEKIVGPGQDLAYTYMKSLGLAFFDLYLQQDSSFKPYLTDSVVQQMSQEPLPLQLVPSL” as the sequence, how does the protein production read?
**A.** failed

**Q.** Which protein production does the source give for “MQSYSDSKPGGATFALFETEHLKANIRRALVEAVLSPWQRTFLSDVLSKLERYGNRARLSHKQLLKLNEILGGNGTPRQDRVTTSRTTRHTRRPRFRSPSFLSRQIRWSRRRLARDAVVVALIVMVGLLYSVFETGPVQSFLGTVGKSSHVMGPVDQAFTVTDGDTVHVAGERAGTRLVGFNTPEKFSPQCEYERKLGERASSRLRELVKSPNLQLTKVPCACPAGSEGTDACNHGRSCGVLKVDGRDVGQILIGEGLAVPFICEGNRCPRTPRPWCGQQS” here?
**A.** failed

**Q.** With “MSTSTSCPIPGGRDQLPDCYSTTPGGTLYATTPGGTRIIYDRKFLLECKNSPIARTPPCCLPQIPGVTTPPTAPLSKLEELKEQETEEEIPDDAQFEMDI” as the sequence, how does the protein production read?
**A.** failed

**Q.** For “MKQKLVVMIAAVLILALTVSIASAEDQNDQTSLRSEQNDAFVAGDNLIDSSSVIKYGDPIGSYKNVTAYSNKGNGKYQCVEYVKRFYKEAMNVEPDWDGTGNAITYYTNAEAKGLVSYSNNGSVAPKPDDIIIFSPTDNGYGHVAIITEVGDKYIKIIEQNWNQENAFASLSLEKNGSKYYISPRGASKRPTEGWCRTPILNIISPTKKSFSLVGNYNNPNLLTVDAEVKSENVPITGLNKDNFTIEIGSKKVNDVTVSDVGEGKYKLSFNPPKQDSNGNYDLNVYVKYKKVTLSDSELNAVRYGEDNANANANVMLVIDRSGSMSGSPISSAKNSANLFIDYMEAEDMAGVVSFSSSARYDYHLATLTPEVKNSIKQKINSIYASGVTAIGSGMRYGLNDLLNYGDPNNPWAIVLLSDGYQNSGENPNNVIPSIKASNIQVYTVGLGPAVDQKLLGNIADQTGGKYYYSPTDSQLQEIYNDIVGKIIGWKTVFKRNVKMFIHERVPIAVPIDSAIDKVSFGIGWPGSNVDLVLYKPDGTLVDPSFADSDPTIEYLSGPTYKIYKVTDPESGMWNMELNATDMPAGGEDVYVTVLAESTLSMSLSTNKGQYNQGEVVKIIADLSDAGTQITGADVKVNVTLPDSSVEYLTLYDDGGHGDNGSQDGVYANYLVDTSLMGDYKVDVTSTGSLSDGSQFKRIEDTSFEIIQGISSISSIANLQSTNDITWINWTWTNPTGPNFSHTEIYLDGVFQANTSAEFFNATGLEPETEYTLSTHTVDISGNVNETWVNSTATTSAELVSDVKKPVIDSVNLFPANTTAGATINLSINATDDTAVTEVIAGDIQLIKTDDIWQGSITAPSSIGSYSLLIKAKDAAGNVAEASVPYRVVQLSGGANIAVSPRSSSIVAGNSVTLNIKVKNTQNIDDIFKVNITVSELPAANQANIDWFSWTEQSVKLRAGEEILLPLEVEVPDGTALGLKLFRANVNSETSVVTGFDTGYLKVV”, which protein production is on record?
**A.** failed

— a protein production outcome set (Wang et al. 2014)
